# Data: PMC1249579, “RLIP76, a non-ABC transporter, and drug resistance in epilepsy” (BMC Neuroscience, 2005)
# B1: RLIP76 (Homo sapiens) (protein)
# chain: MTECFLPPTSSPSEHRRVEHGSGLTRTPSSEEISPTKFPGLYRTGEPSPPHDILHEPPDVVSDDEKDHGKKKGKFKKKEKRTEGYAAFQEDSSGDEAESPSKMKRSKGIHVFKKPSFSKKKEKDFKIKEKPKEEKHKEEKHKEEKHKEKKSKDLTAADVVKQWKEKKKKKKPIQEPEVPQIDVPNLKPIFGIPLADAVERTMMYDGIRLPAVFRECIDYVEKYGMKCEGIYRVSGIKSKVDELKAAYDREESTNLEDYEPNTVASLLKQYLRDLPENLLTKELMPRFEEACGRTTETEKVQEFQRLLKELPECNYLLISWLIVHMDHVIAKELETKMNIQNISIVLSPTVQISNRVLYVFFTHVQELFGNVVLKQVMKPLRWSNMATMPTLPETQAGIKEEIRRQEFLLNCLHRDLQGGIKDLSKEERLWEVQRILTALKRKLREAKRQECETKIAQEIASLSKEDVSKEEMNENEEVINILLAQENEILTEQEELLAMEQFLRRQIASEKEEIERLRAEIAEIQSRQQHGRSETEEYSSESESESEDEEELQIILEDLQRQNEELEIKNNHLNQAIHEEREAIIELRVQLRLLQMQRAKAEQQAQEDEEPEWRGGAVQPPRDGVLEPKAAKEQPKAGKEPAKPSPSRDRKETSI
# notes: pET30a(+), E. coli BL21(DE3); reconstituted in asolectin-cholesterol liposomes
# Legend:
# Test in all cases: purified protein
# Type in all cases: biochemical, Homo sapiens
# purified protein [1] = substrate: Nc1ncnc2c1ncn2[C@@H]1O[C@H](COP(=O)(O)OP(=O)(O)OP(=O)(O)O)[C@@H](O)[C@H]1O; details: co-substrate phenytoin held constant, MgCl2, pH 7.4
# purified protein [2] = substrate: NC(=O)N1c2ccccc2C=Cc2ccccc21; details: ATP held constant, ATP-dependent transport, MgCl2, pH 7.4, labelled compound
# purified protein [3] = substrate: O=C1NC(=O)C(c2ccccc2)(c2ccccc2)N1; details: ATP held constant, ATP-dependent transport, MgCl2, pH 7.4, labelled compound
protein,measurement,setting,value
B1,Km,purified protein [1],1330 µM
same,Km,purified protein [2],0.25 µM
same,Km,purified protein [3],0.43 µM
